The target of one data set is T1, alpha-lactalbumin (UniProt P00711).
T1 sequence: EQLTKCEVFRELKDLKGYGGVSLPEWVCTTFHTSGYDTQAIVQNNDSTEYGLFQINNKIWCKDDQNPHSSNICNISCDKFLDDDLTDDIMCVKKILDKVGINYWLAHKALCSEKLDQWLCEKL
The data set can be described thus: QCM bond rupture sandwich. As to conditions: 100 ng/mL; sandwich with aptamer II beads; 5'-SH-(CH2)6; 30 °C, 70 min per binding step; aptamer I 3 μmol/L on gold with MCH block; aptamer II beads stored in 10 mmol/L PBS; binding buffer, salt and pH not stated.

Data set [1] deals with T2, lactoferrin (LF) (UniProt P24627 20-708). The data set can be described thus: QCM bond rupture sandwich; cyclic voltammetry; aptamer I on gold, 100 ng/mL LF; 30 °C, 70 min per binding step; aptamer I 3 μmol/L on gold with MCH block; aptamer II beads stored in 10 mmol/L PBS; binding buffer, salt and pH not stated. The conditions noted are these: protein: commercial.
T2 sequence (P24627 20-708): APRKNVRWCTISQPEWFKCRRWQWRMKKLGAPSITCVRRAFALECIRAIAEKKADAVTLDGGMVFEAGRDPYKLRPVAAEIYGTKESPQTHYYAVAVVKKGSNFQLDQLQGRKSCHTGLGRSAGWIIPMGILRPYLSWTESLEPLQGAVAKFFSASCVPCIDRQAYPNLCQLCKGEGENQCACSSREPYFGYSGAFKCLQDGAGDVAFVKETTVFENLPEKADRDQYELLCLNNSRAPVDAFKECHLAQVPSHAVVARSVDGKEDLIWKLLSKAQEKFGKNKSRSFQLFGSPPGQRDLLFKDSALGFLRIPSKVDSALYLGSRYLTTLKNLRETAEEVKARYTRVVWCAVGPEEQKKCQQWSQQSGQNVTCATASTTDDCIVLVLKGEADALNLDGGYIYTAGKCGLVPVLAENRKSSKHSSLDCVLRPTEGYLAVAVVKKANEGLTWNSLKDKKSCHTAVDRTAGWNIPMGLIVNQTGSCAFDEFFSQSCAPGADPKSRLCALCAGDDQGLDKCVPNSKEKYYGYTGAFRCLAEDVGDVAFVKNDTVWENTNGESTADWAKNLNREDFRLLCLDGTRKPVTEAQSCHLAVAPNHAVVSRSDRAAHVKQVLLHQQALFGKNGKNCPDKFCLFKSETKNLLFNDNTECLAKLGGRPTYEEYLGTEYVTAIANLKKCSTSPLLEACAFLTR
For data set [2], the target named is T2, lactoferrin (LF). Kind of data set: QCM bond rupture sandwich; cyclic voltammetry; aptamer II on magnetic beads, LF captured by aptamer I; 1180 Hz shift at 100 ng/mL LF; 30 °C, 70 min per binding step; aptamer I 3 μmol/L on gold with MCH block; aptamer II beads stored in 10 mmol/L PBS; binding buffer, salt and pH not stated. The conditions noted are these: protein: commercial.

As for “TGGTGCTGCCCCTAGTCTCCGGCTGCTTCTTGG [aptamer I]”, the binding signal (% of LF signal) with alpha-lactalbumin worked out at 8.39.

B1: aptamer I (ssDNA)
DNA: TGGTGCTGCCCCTAGTCTCCGGCTGCTTCTTGG
modifications: 5'-SH-(CH2)6
In the case of B1, the binding result with lactoferrin (LF) [1] is given as “binds”.

B2: aptamer II (ssDNA)
DNA: AGGCAGGACACCGTAACCGGTGCATCTATGGCTACTAGCTTTTCCTGCCT
modifications: 5'-SH-(CH2)6 as printed
For the molecule B2, the binding result in the data set with lactoferrin (LF) [2] was “binds”.
